Data set [1] addresses VEGF-A165 (Homo sapiens (Human), UniProt P15692 27-191, N-glycosylated (Sf21)). The data set can be described thus: SPR; TBSE 10 mM Tris-HCl pH 7.0, 100 mM NaCl, 0.05 mM EDTA (folded with 50 mM KCl in Fig 3), 24 C; VEGF on CM5. Conditions: chain copies: 2.
Data set [2] deals with VEGF-A121 (Homo sapiens (Human), UniProt P15692 27-147, none (E. coli)). The data set is described as above. Conditions: chain copies: 2.

Two molecules from paper PMC6256979, “Screening and Improvement of an Anti-VEGF DNA Aptamer” can be followed below.

Sequence of VEGF-A121 (P15692 other isoform, or with tags, fused parts or gaps): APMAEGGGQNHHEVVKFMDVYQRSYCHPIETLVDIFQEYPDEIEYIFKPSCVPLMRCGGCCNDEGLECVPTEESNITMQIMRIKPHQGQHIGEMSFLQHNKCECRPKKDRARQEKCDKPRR
Sequence of VEGF-A165 (P15692 other isoform, or with tags, fused parts or gaps): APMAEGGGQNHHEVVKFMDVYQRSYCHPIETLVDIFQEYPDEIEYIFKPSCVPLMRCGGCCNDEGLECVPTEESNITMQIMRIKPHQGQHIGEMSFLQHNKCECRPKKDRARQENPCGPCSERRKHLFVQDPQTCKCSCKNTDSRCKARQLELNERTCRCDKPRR

B1: Vap7 (ssDNA)
DNA: ATACCAGTCTATTCAATTGCACTCTGTGGGGGTGGACGGGCCGGGTAGATAGTATGTGCAATCA
modifications: G-quadruplex
Take B1: the Kd in data set [1] came to 20 nM; in data set [2], 1 nM. In turn, TGTGGGGGTGGACGGGCCGGGTAGA (ssDNA, G-quadruplex) [V7t1] came in with a Kd in data set [2] of 1.1 nM.
